According to paper doi:10.1101/2023.07.08.548186 (bioRxiv, 2023):

T1: ATG9A with N-terminal 6xHis and Twin-StrepII tags (human), Q7Z3C6
T1 chain: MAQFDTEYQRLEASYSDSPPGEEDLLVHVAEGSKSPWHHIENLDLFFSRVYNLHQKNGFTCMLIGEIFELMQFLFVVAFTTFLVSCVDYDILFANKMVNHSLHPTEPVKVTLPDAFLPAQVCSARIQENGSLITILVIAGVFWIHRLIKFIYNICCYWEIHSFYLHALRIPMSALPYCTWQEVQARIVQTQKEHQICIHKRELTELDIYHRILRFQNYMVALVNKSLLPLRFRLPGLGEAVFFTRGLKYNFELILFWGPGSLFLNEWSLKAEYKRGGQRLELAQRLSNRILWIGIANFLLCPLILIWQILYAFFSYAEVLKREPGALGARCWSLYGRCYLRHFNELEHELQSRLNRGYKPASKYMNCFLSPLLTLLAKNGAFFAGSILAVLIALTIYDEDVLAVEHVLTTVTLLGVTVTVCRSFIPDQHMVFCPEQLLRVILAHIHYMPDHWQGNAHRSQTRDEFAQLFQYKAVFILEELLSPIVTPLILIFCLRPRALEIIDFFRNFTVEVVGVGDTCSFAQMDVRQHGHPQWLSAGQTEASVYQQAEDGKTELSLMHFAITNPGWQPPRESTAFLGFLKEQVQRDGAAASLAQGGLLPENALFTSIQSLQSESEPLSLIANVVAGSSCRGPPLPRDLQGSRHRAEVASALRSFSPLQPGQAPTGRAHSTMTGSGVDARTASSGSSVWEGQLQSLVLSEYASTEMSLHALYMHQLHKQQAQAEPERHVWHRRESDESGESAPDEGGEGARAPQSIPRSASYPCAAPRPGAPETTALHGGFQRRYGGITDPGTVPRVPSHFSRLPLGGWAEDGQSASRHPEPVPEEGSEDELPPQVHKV

T2: ATG9A with N-terminal 6xHis and Twin-StrepII tags (human, UniProt Q7Z3C6 1-839)
T2 sequence: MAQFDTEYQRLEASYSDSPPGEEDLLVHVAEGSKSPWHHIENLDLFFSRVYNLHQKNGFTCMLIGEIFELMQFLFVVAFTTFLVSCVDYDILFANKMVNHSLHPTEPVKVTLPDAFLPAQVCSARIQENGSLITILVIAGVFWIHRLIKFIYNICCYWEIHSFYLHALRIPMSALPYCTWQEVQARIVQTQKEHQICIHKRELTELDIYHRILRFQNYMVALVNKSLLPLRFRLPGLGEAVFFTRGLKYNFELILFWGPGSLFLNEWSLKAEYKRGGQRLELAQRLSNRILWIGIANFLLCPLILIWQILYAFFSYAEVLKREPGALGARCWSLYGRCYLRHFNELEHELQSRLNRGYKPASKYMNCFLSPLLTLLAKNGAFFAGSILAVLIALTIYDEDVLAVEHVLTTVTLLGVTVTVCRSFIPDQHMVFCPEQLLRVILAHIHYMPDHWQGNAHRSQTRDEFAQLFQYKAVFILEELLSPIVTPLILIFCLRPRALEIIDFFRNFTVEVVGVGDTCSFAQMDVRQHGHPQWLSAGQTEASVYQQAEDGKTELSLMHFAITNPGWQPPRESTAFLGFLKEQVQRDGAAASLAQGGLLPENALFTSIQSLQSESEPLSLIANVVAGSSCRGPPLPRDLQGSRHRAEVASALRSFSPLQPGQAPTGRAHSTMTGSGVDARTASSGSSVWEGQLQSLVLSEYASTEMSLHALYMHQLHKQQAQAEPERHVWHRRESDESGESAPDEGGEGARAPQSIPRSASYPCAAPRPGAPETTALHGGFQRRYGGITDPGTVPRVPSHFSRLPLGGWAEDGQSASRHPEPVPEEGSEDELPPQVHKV


Columns and labels:
[1] = target: T1, ATG9A with N-terminal 6xHis and …; assay: cryo-EM structure; conditions: remark: other sources report otherwise
[2] = target: T2, ATG9A with N-terminal 6xHis and …; assay: cryo-EM structure

stoichiometry N [1]	stoichiometry N [2] [ATG2A per ATG9A trimer]	Binder
3	–	ATG9A with N-terminal 6xHis and Twin-StrepII tags, Q7Z3C6 1-839 (natural protein) MAQFDTEYQRLEASYSDSPPGEEDLLVHVAEGSKSPWHHIENLDLFFSRVYNLHQKNGFTCMLIGEIFELMQFLFVVAFTTFLVSCVDYDILFANKMVNHSLHPTEPVKVTLPDAFLPAQVCSARIQENGSLITILVIAGVFWIHRLIKFIYNICCYWEIHSFYLHALRIPMSALPYCTWQEVQARIVQTQKEHQICIHKRELTELDIYHRILRFQNYMVALVNKSLLPLRFRLPGLGEAVFFTRGLKYNFELILFWGPGSLFLNEWSLKAEYKRGGQRLELAQRLSNRILWIGIANFLLCPLILIWQILYAFFSYAEVLKREPGALGARCWSLYGRCYLRHFNELEHELQSRLNRGYKPASKYMNCFLSPLLTLLAKNGAFFAGSILAVLIALTIYDEDVLAVEHVLTTVTLLGVTVTVCRSFIPDQHMVFCPEQLLRVILAHIHYMPDHWQGNAHRSQTRDEFAQLFQYKAVFILEELLSPIVTPLILIFCLRPRALEIIDFFRNFTVEVVGVGDTCSFAQMDVRQHGHPQWLSAGQTEASVYQQAEDGKTELSLMHFAITNPGWQPPRESTAFLGFLKEQVQRDGAAASLAQGGLLPENALFTSIQSLQSESEPLSLIANVVAGSSCRGPPLPRDLQGSRHRAEVASALRSFSPLQPGQAPTGRAHSTMTGSGVDARTASSGSSVWEGQLQSLVLSEYASTEMSLHALYMHQLHKQQAQAEPERHVWHRRESDESGESAPDEGGEGARAPQSIPRSASYPCAAPRPGAPETTALHGGFQRRYGGITDPGTVPRVPSHFSRLPLGGWAEDGQSASRHPEPVPEEGSEDELPPQVHKV
–	1	human ATG2A, full length (natural protein) MSRWLWPWSNCVKERVCRYLLHHYLGHFFQEHLSLDQLSLDLYKGSVALRDIHLEIWSVNEVLESMESPLELVEGFVGSIEVAVPWAALLTDHCTVRVSGLQLTLQPRRGPAPGAADSQSWASCMTTSLQLAQECLRDGLPEPSEPPQPLEGLEMFAQTIETVLRRIKVTFLDTVVRVEHSPGDGERGVAVEVRVQRLEYCDEAVRDPSQAPPVDVHQPPAFLHKLLQLAGVRLHYEELPAQEEPPEPPLQIGSCSGYMELMVKLKQNEAFPGPKLEVAGQLGSLHLLLTPRQLQQLQELLSAVSLTDHEGLADKLNKSRPLGAEDLWLIEQDLNQQLQAGAVAEPLSPDPLTNPLLNLDNTDLFFSMAGLTSSVASALSELSLSDVDLASSVRSDMASRRLSAQAHPAGKMAPNPLLDTMRPDSLLKMTLGGVTLTLLQTSAPSSGPPDLATHFFTEFDATKDGPFGSRDFHHLRPRFQRACPCSHVRLTGTAVQLSWELRTGSRGRRTTSMEVHFGQLEVLECLWPRGTSEPEYTEILTFPGTLGSQASARPCAHLRHTQILRRVPKSRPRRSVACHCHSELALDLANFQADVELGALDRLAALLRLATVPAEPPAGLLTEPLPAMEQQTVFRLSAPRATLRLRFPIADLRPEPDPWAGQAVRAEQLRLELSEPQFRSELSSGPGPPVPTHLELTCSDLHGIYEDGGKPPVPCLRVSKALDPKSTGRKYFLPQVVVTVNPQSSSTQWEVAPEKGEELELSVESPCELREPEPSPFSSKRTMYETEEMVIPGDPEEMRTFQSRTLALSRCSLEVILPSVHIFLPSKEVYESIYNRINNDLLMWEPADLLPTPDPAAQPSGFPGPSGFWHDSFKMCKSAFKLANCFDLTPDSDSDDEDAHFFSVGASGGPQAAAPEAPSLHLQSTFSTLVTVLKGRITALCETKDEGGKRLEAVHGELVLDMEHGTLFSVSQYCGQPGLGYFCLEAEKATLYHRAAVDDYPLPSHLDLPSFAPPAQLAPTIYPSEEGVTERGASGRKGQGRGPHMLSTAVRIHLDPHKNVKEFLVTLRLHKATLRHYMALPEQSWHSQLLEFLDVLDDPVLGYLPPTVITILHTHLFSCSVDYRPLYLPVRVLITAETFTLSSNIIMDTSTFLLRFILDDSALYLSDKCEVETLDLRRDYVCVLDVDLLELVIKTWKGSTEGKLSQPLFELRCSNNVVHVHSCADSCALLVNLLQYVMSTGDLHPPPRPPSPTEIAGQKLSESPASLPSCPPVETALINQRDLADALLDTERSLRELAQPSGGHLPQASPISVYLFPGERSGAPPPSPPVGGPAGSLGSCSEEKEDEREEEGDGDTLDSDEFCILDAPGLGIPPRDGEPVVTQLHPGPIVVRDGYFSRPIGSTDLLRAPAHFPVPSTRVVLREVSLVWHLYGGRDFGPHPGHRARTGLSGPRSSPSRCSGPNRPQNSWRTQGGSGRQHHVLMEIQLSKVSFQHEVYPAEPATGPAAPSQELEERPLSRQVFIVQELEVRDRLASSQINKFLYLHTSERMPRRAHSNMLTIKALHVAPTTNLGGPECCLRVSLMPLRLNVDQDALFFLKDFFTSLVAGINPVVPGETSAEARPETRAQPSSPLEGQAEGVETTGSQEAPGGGHSPSPPDQQPIYFREFRFTSEVPIWLDYHGKHVTMDQVGTFAGLLIGLAQLNCSELKLKRLCCRHGLLGVDKVLGYALNEWLQDIRKNQLPGLLGGVGPMHSVVQLFQGFRDLLWLPIEQYRKDGRLMRGLQRGAASFGSSTASAALELSNRLVQAIQATAETVYDILSPAAPVSRSLQDKRSARRLRRGQQPADLREGVAKAYDTVREGILDTAQTICDVASRGHEQKGLTGAVGGVIRQLPPTVVKPLILATEATSSLLGGMRNQIVPDAHKDHALKWRSDSAQD
